From publication PMC8374900 (ACS Omega, 2021)

Target: the molecule itself
Experiment: AUC

B1: endo_N-BAR L187C (C108A) labeled with A488 (domain or fragment, rat, UniProt O35179 1-247, looked up)
chain: MSVAGLKKQFHKATQKVSEKVGGAEGTKLDDDFKEMERKVDVTSRAVMEIMTKTIEYLQPNPASRAKLSMINTMSKIRGQEKGPGYPQAEALLAEAMLKFGRELGDDANFGPALGEVGEAMRELSEVKDSLDMEVKQNFIDPLQNLHDKDLREIQHHLKKLEGRRLDFDYKKKRQGKIPDEELRQACEKFDESKEIAESSMFNLLEMDIEQVSQLSALVQAQLEYHKQAVQILQQVTVRLEERIRQA
modifications: Alexa Fluor 488 C5-maleimide on the introduced Cys 187
stoichiometry N: 2
